Changes are numbered by the printed parent chain.

To fix the notation:
T1: Human BCMA DTA-His (human;, UniProt Q02223 1-54; P00588 33-225)
T1 chain: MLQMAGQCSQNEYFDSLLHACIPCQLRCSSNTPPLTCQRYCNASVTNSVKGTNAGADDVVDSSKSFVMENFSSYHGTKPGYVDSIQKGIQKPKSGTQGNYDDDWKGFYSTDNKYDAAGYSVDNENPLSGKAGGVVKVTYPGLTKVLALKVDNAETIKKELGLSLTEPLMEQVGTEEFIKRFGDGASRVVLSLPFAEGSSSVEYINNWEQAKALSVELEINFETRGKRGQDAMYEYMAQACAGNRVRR

T2: Human BCMA-Avi-His (human, UniProt Q02223 2-54)
T2 chain: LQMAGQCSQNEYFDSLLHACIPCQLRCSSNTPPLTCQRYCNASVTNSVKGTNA

B1: CA10_parental (antibody, V domains shown)
VH: QVQLVESGGGVVQPGRSLRLSCAASGFTFSNFGMHWVRQAPGRGLEWVAVIWSDETNRYYADSVKGRFTVSRDNVKSTVYLQMNSLISEDTAVYYCARDQQYCSSDSCFTWFDPWGQGTLVTVSS
VL: QVVVTQESALTTSPGETVTLTCRSSTGTVTPSNYANWVQEKPDHFFTGLIGDNNSRPPGVPARFSASLIGDKAALTITGAQTEDEAMYFCALWFGNQWVFGGGTKVTVL
B2: CA10 Variant 6 (antibody, V domains shown)
VH: B1 VH
VL: QTVVTQEPSLTVSPGGTVTLTCASSTGTVTPSNYANWVQQKPGQFPRGLIGDNNSRPPGTPARFSASLLGGKAALTLSGVQPEDEAEYYCALWFGNQWVFGGGTKLTVL
B3: CA10 Variant 3 (antibody, V domains shown)
VH: B1 VH
VL: B2 VL with T28A, F45A, S55I, R56K, G59W, A66G, F94Y, N96G
B4: CA10 Variant 4 (antibody, V domains shown)
VH: B1 VH
VL: QTVVTQEPSLTVSPGGTVTLTCASSTGAVTPGYYANWVQQKPGQAPRGLIGDNNNKPPWTPARFSGSLLGGKAALTLSGVQPEDEAEYYCALYYGGQWVFGGGTKLTVL
B5: CA10 Variant 2 (antibody, V domains shown)
VH: B1 VH
VL: B2 VL with F45A
B6: CA10 Variant 1 (antibody, V domains shown)
VH: B1 VH
VL: B2 VL with A23R, G43D, Q44H, P46F, R47T, T60V, L69I, G71D
B7: CA10 Variant 5 (CA10_PE_V5) (antibody, V domains shown)
VH: B1 VH
VL: B4 VL with P31S, G48A, N55I, P58S

The target of the first assay is T1, Human BCMA DTA-His. Description: SPR. For orientation: SPR reads the build-up and loss of mass on a sensor chip optically.
The term Kd denotes a measure of binding affinity in units of concentration. As for B1, the Kd was determined as 0.393 nM.
On the same count and under the same terms, with B2 the figure was 0.0399 nM; with B3, 0.247 nM.
B4 showed a dissociation constant Kd of 3.07 nM.
Still for that read-out and setting: with B5 the figure was 0.478 nM; with B6, 0.247 nM.

The next assay has as its target T2, Human BCMA-Avi-His. The assay can be described thus: SPR.
For B1, the Kd was determined as 0.0694 nM.
Still for that read-out and setting: with B2 the figure was 0.075 nM; with B3, 0.182 nM; with B4, 2.57 nM.
Regarding B5, the Kd turned out to be 0.0666 nM.
Still for that read-out and setting: with B6 the figure was 0.0573 nM.

For a further assay, the target named is Cyno BCMA DTA-His (cynomolgus;, UniProt A0A2K5UD97 1-53; P00588 33-225). The assay can be described thus: SPR.
Consider B1, for which the Kd was determined as 0.0314 nM.
The same measure, in the same setting: with B2 the figure was 0.0962 nM.
Same read-out and setting: with B3 the figure was 0.861 nM; with B7, 1.26 nM; with B4, 13 nM.
Still for that read-out and setting: with B5 the figure was 0.0915 nM; with B6, 0.0418 nM.

In a further assay the target is Cyno BCMA-Avi-His (cynomolgus, UniProt A0A2K5UD97 2-53). Description: SPR.
Sequence of Cyno BCMA-Avi-His (A0A2K5UD97 entry or part of it): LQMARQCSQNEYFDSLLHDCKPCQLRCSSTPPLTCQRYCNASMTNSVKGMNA
Turning to B1, the Kd came to 1.43 nM.
On the same count and under the same terms, with B2 the figure was 1.18 nM; with B3, 11.6 nM.
Same read-out and setting: the result for B7 reads 8.55 nM; that for B4, 64.2 nM.
On the same count and under the same terms, the result for B5 reads 1.89 nM; that for B6, 0.732 nM.

For the origin of these results see patent US20240117062A1 (published 2024).
